In publication PMC3667720:

Molecular target: β-actin (human (endogenous in MDA-MB-231)) (UniProt P60709)
Test: FRET or BRET

Substance: cofilin (from UniProt P23528 1-166) (natural protein)
- FRET efficiency (control siRNA, 0 min EGF): 4.34%
- FRET efficiency (β1 integrin siRNA, 0 min EGF): 3.85%
- increase in FRET efficiency 3 min after EGF against 0 min (control cells): 40%
